These results are taken from patent US20230083273A1 (TRUSTEES OF INDIANA UNIVERSITY, published 2023).

In data set [1] the target is T1, HBV Cp149His monomer (Cp149-6xHis half-dimer) (hepatitis B virus (HBV), UniProt P03147 1-149).
T1 construct: also called Cp149His6; CpHis monomer
Description: native mass spectrometry of the purified co-expressed protein; also a single SEC peak at the dimer position and about equal SDS-PAGE bands.

Data set [2] concerns the molecule itself. Description: SEC of capsid assembly at 300 mM NaCl.
Data set [3] deals with T2, HBV Cp150 homodimer (hepatitis B virus (HBV), UniProt P03147 1-149).
T2 chain: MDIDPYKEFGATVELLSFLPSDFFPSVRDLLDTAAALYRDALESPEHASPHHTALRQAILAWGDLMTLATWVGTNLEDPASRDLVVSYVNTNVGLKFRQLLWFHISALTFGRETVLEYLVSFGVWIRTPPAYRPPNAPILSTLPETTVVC
Description: negative-stain EM.

Data set [4] concerns the molecule itself. Description: Ni2+-driven assembly (10 uM heterodimer, 100 uM NiCl2, low ionic strength); SEC, CDMS, negative-stain EM.
In data set [5] the target is T2, HBV Cp150 homodimer. Description: co-assembly at 300 mM NaCl, SEC.

B1: HBV Cp149Y132A monomer (Cp149-Y132A half-dimer) (other)
chain: MDIDPYKEFGATVELLSFLPSDFFPSVRDLLDTAAALYRDALESPEHCSPHHTALRQAILCWGDLMTLATWVGTNLEDPASRDLVVSYVNTNVGLKFRQLLWFHISCLTFGRETVLEYLVSFGVWIRTPPAARPPNAPILSTLPETTVV
For B1, the binding result in data set [1] is on record as “binds”.

B2: HBV Cp149 homodimer (wild-type assembly domain) (other)
chain: MDIDPYKEFGATVELLSFLPSDFFPSVRDLLDTAAALYRDALESPEHCSPHHTALRQAILCWGDLMTLATWVGTNLEDPASRDLVVSYVNTNVGLKFRQLLWFHISCLTFGRETVLEYLVSFGVWIRTPPAYRPPNAPILSTLPETTVV
notes: also called wild-type homodimer Cp149
B2: the binding result in data set [2] was “binds”.

B3: heterodimer Cp149HisCp149Y132A (other)
chain 1: MDIDPYKEFGATVELLSFLPSDFFPSVRDLLDTAAALYRDALESPEHCSPHHTALRQAILCWGDLMTLATWVGTNLEDPASRDLVVSYVNTNVGLKFRQLLWFHISCLTFGRETVLEYLVSFGVWIRTPPAYRPPNAPILSTLPETTVVHHHHHH
chain 2: MDIDPYKEFGATVELLSFLPSDFFPSVRDLLDTAAALYRDALESPEHCSPHHTALRQAILCWGDLMTLATWVGTNLEDPASRDLVVSYVNTNVGLKFRQLLWFHISCLTFGRETVLEYLVSFGVWIRTPPAARPPNAPILSTLPETTVV
notes: also called Cp149His6Cp149Y132A; asymmetric heterodimer
With B3, the binding result (with HBV Cp150 homodimer [3]; in data set [4]) was “binds” in each case.

B4: Cp149HisCp149Y132A hexamer (hexamer of heterodimers assembled with Ni2+) (other)
chain 1: MDIDPYKEFGATVELLSFLPSDFFPSVRDLLDTAAALYRDALESPEHCSPHHTALRQAILCWGDLMTLATWVGTNLEDPASRDLVVSYVNTNVGLKFRQLLWFHISCLTFGRETVLEYLVSFGVWIRTPPAYRPPNAPILSTLPETTVVHHHHHH
chain 2: MDIDPYKEFGATVELLSFLPSDFFPSVRDLLDTAAALYRDALESPEHCSPHHTALRQAILCWGDLMTLATWVGTNLEDPASRDLVVSYVNTNVGLKFRQLLWFHISCLTFGRETVLEYLVSFGVWIRTPPAARPPNAPILSTLPETTVV
notes: also called heterodimer hexamer; hexamers
In the case of B4, the binding result in the data set with HBV Cp150 homodimer [5] is reported as “binds”.
